What was measured:
AZ = conditions: ref [20], [46]–[48]; cited from earlier work
Source text: Another protein that regulates ODC by binding to AZ is called antizyme inhibitor (AZI). AZI is homologous to ODC, but lacks ODC enzymatic activity, [43]–[46]. […] AZI can bind to all isoforms of mammalian AZ [32], [42].

human AZI = experiment: AZ peptide-AZI complex size distribution by analytical ultracentrifugation; format: binding; conditions: Table 2
Protocol: A Beckman Optima XL-A analytical ultracentrifuge was used for sedimentation velocity experiments. Reference and sample sectors in the centerpiece were filled with buffer (400 µl) and sample protein (0.3 mg/mL, 380 µl), respectively, and then the cell was built up in an An-50 Ti rotor. Sedimentation velocity experiments were performed at 20°C with a rotor speed of 42,000 rpm. The data were traced by absorbance at 280 nm in continuous mode, with a time interval of 420 s and a step size of 0.002 cm. A total of 20–30 scans at different time points were collected and fitted to a continuous size distribution model using the program SEDFIT [54]–[55]. All size distributions were calculated at 0.1 to 20 S with a confidence level of p = 0.95 and a resolution N of 200.
In order to determine the dissociation constants (K d) of the AZ peptide-ODC and AZ peptide-AZI complexes, sedimentation velocity experiments were performed at different concentrations of AZ or AZ peptide with a constant concentration of human ODC or AZI. The K d values of the AZ peptide-ODC and AZ peptide-AZI complexes were calculated by a global fitting of all sedimentation data in the AB hetero-association model in the SEDPHAT program [56]–[57]. The partial specific volumes of the proteins, the solvent densities, and the viscosity were calculated by the SEDNTERP program. […]

AZ peptide-inhibited ODC = experiment: Rescue of AZ-inhibited ODC enzyme activity by AZI; format: biochemical, human; conditions: Figure 4
Protocol: Figure 4 Relative ODC enzyme activities in the presence of AZ and AZI. ODC enzymes equilibrated with equimolar AZI were inhibited by various concentrations of AZ peptides. The concentrations of AZI and ODC were fixed at 18.9 µg/mL and 20 µg/mL, respectively (the ratio of AZI monomer versus ODC monomer was fixed at 1). Panels A–H show the inhibition curves of ODC for each AZ peptide in the absence (closed circles) and in the presence (open circles) of AZI.
For enzyme rescue experiments with AZI, the ODC enzyme was first pre-incubated with AZ at a molar ratio of 3.5 AZ monomers to 1 ODC monomer to achieve 80% enzyme inhibition. The inhibited ODC activity was recovered by increasing the AZI concentration.

ODC = conditions: cited from earlier work
Source text: (§1) There are at least four AZ isozymes with different binding affinities for ODC [31]–[32]. Isoform 1, AZ-1, is present in all tissues and is the major isoform that participates in ODC degradation. […] The C-terminal region of AZ-1 interacts with ODC to inhibit enzyme activity, and the N-terminal region of AZ-1 controls the degradation of ODC [34]–[36]. AZ-2 has a distribution similar to that of AZ-1 in all of the tissues and cells examined thus far, but its expr ...

ODC degradation = conditions: cited from earlier work
Source text: as §1

B1: Antizyme inhibitor (protein)
chain: MKGFIDDANYSVGLLDEGTNLGNVIDNYVYEHTLTGKNAFFVGDLGKIVKKHSQWQNVVAQIKPFYTVKCNSAPAVLEILAALGTGFACSSKNEMALVQELGVPPENIIYISPCKQVSQIKYAAKVGVNILTCDNEIELKKIARNHPNAKVLLHIATEDNIGGEEGNMKFGTTLKNCRHLLECAKELDVQIIGVKFHVSSACKESQVYVHALSDARCVFDMAGEIGFTMNMLDIGGGFTGTEFQLEEVNHVISPLLDIYFPEGSGVKIISEPGSYYVSSAFTLAVNIIAKKVVENDKFPSGVEKTGSDEPAFMYYMNDGVYGSFASKLSEDLNTIPEVHKKYKEDEPLFTSSLWGPSCDELDQIVESCLLPELNVGDWLIFDNMGADSFHEPSAFNDFQRPAIYYMMSFSDWYEMQDAGITSDSMMKNFFFVPSCIQLSQEDSFSAEA
modifications: left off: His6, N-terminal, state not stated
Affinity of AZI for AZ (AZ): binds to AZ with a higher affinity than ODC
Affinity of AZI for AZ peptides versus ODC (in words) (human AZI): can bind to AZ peptides with a higher affinity than ODC
Rescue of ODC enzyme activity by AZI (in words) (AZ peptide-inhibited ODC): can rescue AZ peptide-inhibited ODC enzyme activity

B2: AZ-2: AZ isozyme 2, distribution similar to AZ-1, lower expression level (protein, UniProt O95190 1-189, looked up)
Ornithine decarboxylase …: MINTQDSSILPLSNCPQLQCCRHIVPGPLWCSDAPHPLSKIPGGRGGGRDPSLSALIYKDEKLTVTQDLPVNDGKPHIVHFQYEVTEVKVSSWDAVLSSQSLFVEIPDGLLADGSKEGLLALLEFAEEKMKVNYVFICFRKGREDRAPLLKTFSFLGFEIVRPGHPCVPSRPDVMFMVYPLDQNLSDED
Inhibition of ODC activity, AZ-2 (ODC; ref [38]–[39]): can inhibit ODC enzyme activity
ODC degradation, AZ-2 (ODC degradation; ref [38]–[39]): does not promote ODC degradation

B3: AZ-3: AZ isozyme 3, germ cells of testes (protein, UniProt Q9UMX2 1-235, looked up)
Ornithine decarboxylase …: MPCKRCRPSVYSLSYIKRGKTRNYLYPIWSPYAYYLYCYKYRITLREKMLPRCYKSITYKEEEDLTLQPRSCLQCSESLVGLQEGKSTEQGNHDQLKELYSAGNLTVLATDPLLHQDPVQLDFHFRLTSQTSAHWHGLLCDRRLFLDIPYQALDQGNRESLTATLEYVEEKTNVDSVFVNFQNDRNDRGALLRAFSYMGFEVVRPDHPALPPLDNVIFMVYPLERDVGHLPSEPP
Inhibition of ODC activity, AZ-3 (ODC; ref [41]): poorly inhibits ODC activity
ODC degradation, AZ-3 (ODC degradation; ref [41]): fails to stimulate ODC degradation

Reference: paper PMC3170320, “Minimal Antizyme Peptide Fully Functioning in the Binding and Inhibition of Ornithine Decarboxylase and Antizyme Inhibitor” (PLoS ONE, 2011)
